# Results reported in doi:10.1101/2025.06.13.659598.
# What was measured:
# [1] = target: nesprin-2G SR11-13 (spectrin repeats 11-13 of human nesprin-2) (human); experiment: BLI
# [2] = target: nesprin-2G SR11-12 (spectrin repeats 11-12 of human nesprin-2) (human); experiment: BLI
binder,measurement,setting,value
FHOD1 SRBD-DID (amino terminal construct of human FHOD1) (domain or fragment) SVVTVRVQYLEDTDPFACANFPEPRRAPTCSLDGALPLGAQIPAVHRLLGAPLKLEDCALQVSPSGYYLDTELSLEEQREMLEGFYEEISKGRKPTLILRTQLSVRVNAILEKLYSSSGPELRRSLFSLKQIFQEDKDLVPEFVHSEGLSCLIRVGAAADHNYQSYILRALGQLMLFVDGMLGVVAHSDTIQWLYTLCASLSRLVVKTALKLLLVFVEYSENNAPLFIRAVNSVASTTGAPPWANLVSILEEKNGADPELLVYTVTLINKTLAALPDQDSFYDVTDALEQQGMEALVQRHLGTAGTDVDLRTQLVLYENAL,Kd,[1],92 nM
same,Kd,[2],472 nM
